# Residue numbers refer to the chain shown, from its start. Where two headings read alike, the source gives them in different places.
# B1: T017000055 (bispecific antibody)
# chain: EVQLVESGGGLVQPGGSLRLSCTFSGGTFSSYTMGWFRQAPGKEREFVAEVRWGGVTTYSNSLKDRFSISEDSVKNAVYLQMNSLKPEDTAVYYCAAVRQMYMTVVPDYWGQGTLVTVSSGGGGSGGGGSGGGGSGGGGSGGGGSGGGGSGGGGSEVQLVESGGGLVQPGGSLRLSCAASGDVHKINILGWYRQAPAKEREMVAHITIGDATDYADSAKGRFTISRDEAKNMVYLQMNSLKPEDTAVYFCRAYSRIYPYNYWGQGTLVTVSSGAADYKDHDGDYKDHDIDYKDDDDKGAAHHHHHH
# notes: entry includes the FLAG3-HIS6 tag; also called 20CD019C07-35GS-T0170055A02-FLAG3-HIS6
# B2: T017000042 (bispecific antibody)
# chain: EVQLVESGGGLVQPGGSLRLSCAASGDVHKINILGWYRQAPAKEREMVAHITIGDATDYADSAKGRFTISRDEAKNMVYLQMNSLKPEDTAVYFCRAYSRIYPYNYWGQGTLVTVSSGGGGSGGGGSGGGGSGGGGSGGGGSGGGGSGGGGSEVQLVESGGGLVQPGGSLRLSCTFSGGTFSSYTMGWFRQAPGKEREFVAEVRWGGVTTYSNSLKDRFSISEDSVKNAVYLQMNSLKPEDTAVYYCAAVRQMYMTVVPDYWGQGTLVTVSSGAADYKDHDGDYKDHDIDYKDDDDKGAAHHHHHH
# notes: TCR x CD20 bispecific Nanobody construct (cluster A); entry includes the FLAG3-HIS6 tag; also called T0170055A02-35GS-20CD019C07-FLAG3-HIS6
# B3: T017000074 (bispecific antibody)
# chain: B2 chain with A23V, I33F, A42G, M47K, T52S, A56Q, A74S, Y98F, N105D
# notes: TCR x CD20 bispecific Nanobody construct (cluster A); entry includes the FLAG3-HIS6 tag; also called T0170056G05-35GS-20CD019C07-FLAG3-HIS6
# B4: T017000031 (bispecific antibody)
# chain: EVQLVESGGGLVQPGGSLRLSCITSGETFKINIWGWYRQAPGKQRELVASLTIGGATNYADSVKGRFTISEDSAKNTVYLQMNSLKPEDTAVYFCNAKSRLYPYDYWGQGTLVTVSSGGGGSGGGGSGGGGSGGGGSGGGGSGGGGSGGGGSEVQLVESGGGLVQPGGSLRLSCTFSGGTFSSYTMGWFRQAPGKEREFVAEVRWGGVTTYSNSLKDRFSISEDSVKNAVYLQMNSLKPEDTAVYYCAAVRQMYMTVVPDYWGQGTLVTVSSGAADYKDHDGDYKDHDIDYKDDDDKGAAHHHHHH
# notes: TCR x CD20 bispecific Nanobody construct (cluster B); entry includes the FLAG3-HIS6 tag; also called T0170055C07-35GS-20CD019C07-FLAG3-HIS6
# B5: T017000051 (bispecific antibody)
# chain: EVQLVESGGGLVQPGGSLRLSCTFSGGTFSSYTMGWFRQAPGKEREFVAEVRWGGVTTYSNSLKDRFSISEDSVKNAVYLQMNSLKPEDTAVYYCAAVRQMYMTVVPDYWGQGTLVTVSSGGGGSGGGGSGGGGSGGGGSGGGGSGGGGSGGGGSEVQLVESGGGLVQPGGSLRLSCAASGEIGRINFYRWYRQAPGNQREVVATITIADKTDYADSAKGRFTISRDESRNMVYLQMSSLKPEDTAVYFCHAGSRLYPYDYWGQGTLVTVSSGAADYKDHDGDYKDHDIDYKDDDDKGAAHHHHHH
# notes: CD20 x TCR bispecific Nanobody construct (cluster C); entry includes the FLAG3-HIS6 tag; also called 20CD019C07-35GS-T0170061G01-FLAG3-HIS6
# B6: T017000038 (bispecific antibody)
# chain: EVQLVESGGGLVQPGGSLRLSCAASGEIGRINFYRWYRQAPGNQREVVATITIADKTDYADSAKGRFTISRDESRNMVYLQMSSLKPEDTAVYFCHAGSRLYPYDYWGQGTLVTVSSGGGGSGGGGSGGGGSGGGGSGGGGSGGGGSGGGGSEVQLVESGGGLVQPGGSLRLSCTFSGGTFSSYTMGWFRQAPGKEREFVAEVRWGGVTTYSNSLKDRFSISEDSVKNAVYLQMNSLKPEDTAVYYCAAVRQMYMTVVPDYWGQGTLVTVSSGAADYKDHDGDYKDHDIDYKDDDDKGAAHHHHHH
# notes: TCR x CD20 bispecific Nanobody construct (cluster C); entry includes the FLAG3-HIS6 tag; also called T0170061G01-35GS-20CD019C07-FLAG3-HIS6
# B7: T017000107 (other)
# chain: EVQLVESGGGLVQAGGSLRLSCAASGRTFSSYVMGWFRQATGKEREFVATIAWDSGSTYYADSVKGRFTISRDNAKNTVHLQMNSLKPEDTAVYYCAASYNVYYNNYYYPISRDEYDYWGQGTLVTVSSGGGGSGGGGSGGGGSGGGGSGGGGSGGGGSGGGGSEVQLVESGGGSVQAGGSLRLSCAASGDTYGSYWMGWFRQAPGKEREGVAAINRGGGYTVYADSVKGRFTISRDTAKNTVYLQMNSLRPDDTADYYCAASGVLGGLHEDWFNYWGQGTLVTVSSGGGGSGGGGSGGGGSGGGGSGGGGSGGGGSGGGGSEVQLVESGGGLVQPGGSLRLSCVASGDVHKINFLGWYRQAPGKEREKVAHISIGDQTDYADSAKGRFTISRDESKNMVYLQMNSLKPEDTAVYFCRAFSRIYPYDYWGQGTLVTVSSGAADYKDHDGDYKDHDIDYKDDDDKGAAHHHHHH
# notes: EGFR x CEACAM5 x TCR multispecific Nanobody construct; entry includes the FLAG3-HIS6 tag; also called EGFR038G07-35GS-NbCEA5-35GS-T0170056G05-FLAG3-HIS6
# B8: T0170061G01 (VHH)
# VHH: EVQLVESGGGLVQPGGSLRLSCAASGEIGRINFYRWYRQAPGNQREVVATITIADKTDYADSAKGRFTISRDESRNMVYLQMSSLKPEDTAVYFCHAGSRLYPYDYWGQGTQVTVSS
# notes: Monovalent anti-TCR Nanobody, cluster C; expressed in E. coli as triple Flag, His6-tagged protein; also called T0170PMP061G01; not shown: C-terminal triple Flag-His6 tag of the E. coli-expressed monovalent
# Assays:
# [1] = molecular target: T1, T cell receptor alpha/beta on purified primary human T cells (human, UniProt P01848 1-140; P01850 1-176); test: flow cytometry, purified primary human T cells
# T1 construct: whole, on cells; also called human primary T cells
# T1 TCR alpha (looked up): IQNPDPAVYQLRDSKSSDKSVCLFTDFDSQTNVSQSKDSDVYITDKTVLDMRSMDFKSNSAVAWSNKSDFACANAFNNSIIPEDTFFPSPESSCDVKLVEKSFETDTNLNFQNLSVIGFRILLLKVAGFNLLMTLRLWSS
# T1 TCR beta (looked up): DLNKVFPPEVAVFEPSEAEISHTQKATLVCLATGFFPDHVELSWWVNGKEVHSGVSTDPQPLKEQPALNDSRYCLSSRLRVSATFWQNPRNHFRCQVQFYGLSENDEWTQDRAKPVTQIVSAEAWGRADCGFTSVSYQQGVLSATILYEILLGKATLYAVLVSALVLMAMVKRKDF
# [2] = molecular target: T2, human CD20 on cells (human, UniProt P11836 1-297); test: cell-based or functional assay
# T2 sequence (looked up): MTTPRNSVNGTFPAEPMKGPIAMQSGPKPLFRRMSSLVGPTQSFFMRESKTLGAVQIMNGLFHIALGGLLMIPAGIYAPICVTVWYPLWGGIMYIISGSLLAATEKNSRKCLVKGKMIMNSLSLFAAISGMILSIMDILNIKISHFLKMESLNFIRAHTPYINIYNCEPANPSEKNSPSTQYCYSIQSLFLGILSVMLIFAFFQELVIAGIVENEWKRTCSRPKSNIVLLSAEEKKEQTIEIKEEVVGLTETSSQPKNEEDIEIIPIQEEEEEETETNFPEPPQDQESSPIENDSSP
# [3] = molecular target: T2, human CD20 on cells; test: flow cytometry, Ramos cells
# [4] = molecular target: T3, T cell receptor alpha/beta on primary cynomolgus T cells (cynomolgus); test: cell-based or functional assay
# [5] = molecular target: T2, human CD20 on cells; test: cell-based or functional assay; remark: listed apart in the source
# [6] = molecular target: T3, T cell receptor alpha/beta on primary …; test: cell-based or functional assay; remark: listed apart in the source
# [7] = molecular target: T4, EGFR on cells (UniProt P00533 25-1210, limits assumed); test: cell-based or functional assay
# [8] = molecular target: T4, EGFR on cells; test: flow cytometry, HER14 cells
# [9] = molecular target: T5, human CD3 expressed on HEK293H cells (human, UniProt P04234 22-171; P09693 23-182; P07766 23-207; P20963 22-164); test: flow cytometry, HEK293H human CD3 cells
# T5 construct: also called HEK293H human CD3; HEK293H CD3
# T5 sequence (P04234 22-171 limits assumed, chain 1 of 4): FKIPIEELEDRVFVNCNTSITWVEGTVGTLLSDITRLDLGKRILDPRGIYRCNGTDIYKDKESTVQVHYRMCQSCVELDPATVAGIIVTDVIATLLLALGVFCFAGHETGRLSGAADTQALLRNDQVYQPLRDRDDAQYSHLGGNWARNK
# T5 sequence (P09693 23-182 limits assumed, chain 2 of 4): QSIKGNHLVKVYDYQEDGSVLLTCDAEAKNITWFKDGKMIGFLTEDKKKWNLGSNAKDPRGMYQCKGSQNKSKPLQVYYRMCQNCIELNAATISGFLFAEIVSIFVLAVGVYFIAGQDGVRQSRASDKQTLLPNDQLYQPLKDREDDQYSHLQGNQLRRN
# T5 sequence (P07766 23-207 limits assumed, chain 3 of 4): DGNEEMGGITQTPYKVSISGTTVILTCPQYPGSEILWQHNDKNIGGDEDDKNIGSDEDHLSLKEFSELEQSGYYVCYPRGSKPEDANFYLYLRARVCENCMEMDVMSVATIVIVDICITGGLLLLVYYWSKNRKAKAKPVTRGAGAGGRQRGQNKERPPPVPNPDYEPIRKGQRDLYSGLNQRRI
# T5 sequence (P20963 22-164 limits assumed, chain 4 of 4): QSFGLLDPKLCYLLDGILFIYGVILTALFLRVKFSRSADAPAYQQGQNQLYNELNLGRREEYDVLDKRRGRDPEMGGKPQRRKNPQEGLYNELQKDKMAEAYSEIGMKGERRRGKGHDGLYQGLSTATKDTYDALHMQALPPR
# Procedure: (§1) Binding of purified monovalent anti-TCR Nanobodies to human TCR(2IAN)/CD3 expressed on HEK293H cells was evaluated and compared with the binding to HEK293H cells transfected with human CD3 in flow cytometry, as outlined in Example 5. Dilution series of anti-TCR Nanobodies starting from 1 μM were applied to the cells. The parental HEK293H cell line was included as TCR/CD3 negative cell line.
# Nanobodies clearly bound to human TCR(2IAN)/CD3 expressed on HEK293H but not to the HEK293H cells transfected with human CD3 only, nor to the HEK293H parental cell line. The EC50 values obtained from the dose response curve are depicted in Table C-2.
# [10] = molecular target: T5, human CD3 expressed on HEK293H cells; test: flow cytometry on HEK293H human CD3 cells, MCF
# Procedure: as §1
# [11] = molecular target: T1, T cell receptor alpha/beta on purified …; test: flow cytometry, purified primary human T cells
# Procedure: Periplasmic extracts were screened for cell expressed TCR/CD3 binding using human TCR/CD3 transfected CHO-K1 or HEK293H cells and the respective CHO-K1 or HEK293H reference cell line in a mixed cell line setup. To this end, a large batch of the reference cell lines were labelled with 8 μM PKH26 and frozen. 5×10⁴ PKH labelled reference cells were mixed with 5×10⁴ target cells and incubated with periplasmic extracts for 30 min at 4′C, and washed 3 times. […] Samples were washed, resuspended in FACS Buffer (D-PBS from Gibco, with 10% FBS from Sigma and 0.05% sodium azide from Merck) and then analysed via a BD FACSArray. […] In this gate, 20,000 cells were counted during acquisition. Based on PKH26-SSC distribution, the PKH labelled parental population and the human TCR/CD3 unlabelled target population was selected. For these 2 populations the mean APC value was calculated.
# Binding of purified monovalent anti-TCR Nanobodies to human TCR(2XN9)/CD3 expressed on CHO-K1 cells and to purified primary human T cells was evaluated in flow cytometry as outlined in Example 4.1.
Binder,EC50 [1] [nM],"IC50, flow cytometry based human T cell mediated Ramos killing assay, E:T 10:1 [2] [nM]",EC50 [3] [nM],"IC50, flow cytometry based cynomolgus T cell mediated B cell (Ramos) killing assay [4] [nM]","IC50, xCELLigence human T cell mediated CHO-K1 CD20 killing assay, E:T 30:1, 44 h [5] [nM]","IC50, xCELLigence cynomolgus T cell mediated CHO-K1 human CD20 killing assay, E:T 30:1 [6] [nM]","IC50, xCELLigence human T cell mediated killing of HER14 cells, E:T 15, 50-60 h [7] [nM]",EC50 [8] [nM],Top [8],MCF at 1 µM [9] [MCF],binding result [10],EC50 [11] [nM]
B1,130,0.53,1.8,0.569,1.4,0.99,,,,,,
B2,230,5.7,20,0.17,4.2,0.89,,,,,,
B3,190,0.92,16,0.24,1.5,0.12,,,,,,
B4,350,1.1,23,0.79,2.1,1.2,,,,,,
B5,> 100,0.57,2.7,,27,,,,,,,
B6,> 100,2.7,21,,4.1,,,,,,,
B7,,,,,,,0.14,1.6,146000,,,
B8,,,,,,,,,,495,no binding (tested: 1e-6 M),> 100

# Source: US20190112392A1 (Ablynx, published 2019)
